Test results: publication PMC10998907 (Nature Communications, 2024)

Biological target: NiV-RBP ectodomain homotetramer (Nipah virus, Malaysia (deposit 8K3C …, UniProt Q9IH62))
Experiment: cryo-EM structure
Details: both partners purified

NiV-RBP ectodomain homotetramer (Nipah virus, Malaysia, sequence (Q9IH62 whole entry, looked up, the tested form may be a part): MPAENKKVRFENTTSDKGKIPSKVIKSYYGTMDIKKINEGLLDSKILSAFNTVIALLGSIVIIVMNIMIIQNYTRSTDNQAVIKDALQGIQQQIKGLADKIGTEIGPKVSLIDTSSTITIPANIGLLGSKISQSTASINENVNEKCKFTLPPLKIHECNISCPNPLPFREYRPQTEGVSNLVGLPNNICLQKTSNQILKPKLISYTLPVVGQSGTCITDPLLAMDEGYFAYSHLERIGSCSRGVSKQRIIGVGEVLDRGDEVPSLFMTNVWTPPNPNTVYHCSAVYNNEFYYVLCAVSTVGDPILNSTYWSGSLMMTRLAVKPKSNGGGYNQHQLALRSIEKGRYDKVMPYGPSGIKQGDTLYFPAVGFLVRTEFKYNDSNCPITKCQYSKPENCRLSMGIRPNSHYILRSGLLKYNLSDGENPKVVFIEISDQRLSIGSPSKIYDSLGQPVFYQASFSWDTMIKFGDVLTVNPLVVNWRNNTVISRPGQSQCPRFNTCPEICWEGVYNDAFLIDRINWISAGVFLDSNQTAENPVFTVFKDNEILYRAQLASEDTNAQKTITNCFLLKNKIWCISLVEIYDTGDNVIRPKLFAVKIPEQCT

B1: 41-6 Fab fragment (Fab, V domains shown)
VH: EVQLVQSGGGLVQPGGSLRLSCAASGFTVSSNYMSWVRQAPGKGLEWVSAISGSGGSTYYADSVKGRFTISRDNSKNTLYLQMNSLRAEDTAVYYCARDREDIVVVPAPRGYYYYYYMDVWGQGTTVTVSS
VL: QSVVTQPPSVSAAPGQKVTISCSGSSSNIGTNHLSWYQQVPGTAPKLLIYDNNKRPSGIPDRFSGSKSGTSASLAISGLQSEDEADYYCATWDDSLHAWVFGGGTKLTVL
- stoichiometry N: 3
